Laboratory results published in publication PMC7677311, “Disrupting Plasmodium UIS3–host LC3 interaction with a small molecule causes parasite elimination from host cells” (Communications Biology, 2020).

Target: LC3 (Microtubule-associated protein 1A/1B-light chain 3) (UniProt Q9GZQ8 1-120)
Test: ITC; 100 µM LC3 titrated into 10 µM PfUIS3; MicroCal ITC 200, 25 °C; 50 mM sodium phosphate, 150 mM NaCl, pH 6.5; one-site binding model
Conditions: both partners purified

B1: Plasmodium falciparum UIS3 (Upregulated in infective sporozoites 3) (natural protein)
chain: INKINLNKPIIENKNNVDVSIKRYNNFVDIARLSIQKHFEHLSNDQKDSHVNNMEYMQKFVQGLQENRNISLSKYQENKAVMDLKYHLQKVYANYLSQEEN
modifications: Construct limits are not given; the soluble domain is taken from PDB 2VWA, which the paper cites for PfUIS3. The His tag was removed with thrombin; the residual myc tag is left out.
Kd: 2150 ± 121 nM
